The target of series [1] is type I-F CRISPR-Cas surveillance complex (Csy complex) (Pseudomonas aeruginosa) (UniProt Q02ML9). In words: MST.
Series [2] has as its target Csy complex with Cas8f (N250D) (Pseudomonas aeruginosa) (UniProt Q02ML9). In words: MST.
In series [3] the target is Csy complex with Cas7f (K58A/K60A) (Pseudomonas aeruginosa) (UniProt Q02ML9). In words: MST.
For series [4], the target named is T1, Csy complex (type I-F surveillance complex: Cas8f, Cas5f, Cas7f, Cas6f + crRNA) (Pseudomonas aeruginosa, UniProt Q02ML9;Q02MM0;Q02MM1;Q02MM2 1-434;1-327;1-342;1-187).
T1 sequence 1: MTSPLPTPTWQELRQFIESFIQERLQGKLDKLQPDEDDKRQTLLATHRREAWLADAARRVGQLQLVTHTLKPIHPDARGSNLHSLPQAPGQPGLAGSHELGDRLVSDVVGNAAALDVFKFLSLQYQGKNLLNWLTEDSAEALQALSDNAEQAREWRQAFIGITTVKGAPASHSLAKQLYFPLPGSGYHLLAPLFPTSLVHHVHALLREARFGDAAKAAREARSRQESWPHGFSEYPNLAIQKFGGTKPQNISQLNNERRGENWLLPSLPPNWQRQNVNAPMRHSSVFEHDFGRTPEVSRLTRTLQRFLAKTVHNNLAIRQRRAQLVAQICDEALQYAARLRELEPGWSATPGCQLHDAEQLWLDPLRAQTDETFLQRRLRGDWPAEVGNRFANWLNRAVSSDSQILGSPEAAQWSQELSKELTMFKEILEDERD
T1 sequence 2: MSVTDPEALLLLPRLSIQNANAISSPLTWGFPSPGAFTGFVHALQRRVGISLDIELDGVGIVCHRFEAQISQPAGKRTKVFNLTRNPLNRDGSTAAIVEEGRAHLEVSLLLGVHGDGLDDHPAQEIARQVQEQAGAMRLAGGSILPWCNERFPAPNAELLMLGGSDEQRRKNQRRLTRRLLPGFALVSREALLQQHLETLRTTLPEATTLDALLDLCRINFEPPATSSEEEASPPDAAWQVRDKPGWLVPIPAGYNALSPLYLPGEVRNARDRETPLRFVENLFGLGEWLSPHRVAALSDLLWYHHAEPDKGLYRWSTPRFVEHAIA
T1 sequence 3: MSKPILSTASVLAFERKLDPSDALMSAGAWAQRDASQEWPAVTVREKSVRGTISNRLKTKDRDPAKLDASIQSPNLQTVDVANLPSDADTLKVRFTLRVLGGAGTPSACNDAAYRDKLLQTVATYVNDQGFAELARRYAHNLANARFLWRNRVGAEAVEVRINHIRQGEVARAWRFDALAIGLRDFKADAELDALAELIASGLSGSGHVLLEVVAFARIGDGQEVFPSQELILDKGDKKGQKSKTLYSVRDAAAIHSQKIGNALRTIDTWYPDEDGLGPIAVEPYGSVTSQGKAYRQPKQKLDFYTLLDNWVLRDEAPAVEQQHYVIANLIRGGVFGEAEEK
T1 sequence 4: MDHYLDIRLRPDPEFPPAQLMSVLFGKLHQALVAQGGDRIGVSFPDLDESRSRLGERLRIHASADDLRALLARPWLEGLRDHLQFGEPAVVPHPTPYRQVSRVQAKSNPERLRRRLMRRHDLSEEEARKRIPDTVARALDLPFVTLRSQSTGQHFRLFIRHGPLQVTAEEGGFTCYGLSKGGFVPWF
In words: EMSA. On the technique in general: In EMSA bound probe runs differently from free probe, usually more slowly.

In general, Kd refers to the free concentration of one partner at which half of the binding sites on the other are occupied at equilibrium, for simple one-to-one binding. A higher Kd goes with lower affinity. On to AcrIF13 E50K (natural protein), for which the dissociation constant (Kd) in series [1] amounted to 0.0181 µM.

Take AcrIF13 D113K (natural protein): the dissociation constant Kd in series [1] is 0.0677 µM. Still for that read-out and setting: then AcrIF13 D102K (natural protein), with 0.00921 µM.

The molecule AcrIF13 D21K/E22K (natural protein) came in with a Kd in series [1] of 0.0298 µM. On the same count and under the same terms, then AcrIF13 E10K (natural protein), with 0.0223 µM. On to AcrIF13 D43K/D44K (natural protein), for which, in series [1], the dissociation constant (Kd) came out at 0.00185 µM. Still for that read-out and setting: with AcrIF13 E57K (natural protein) the figure was 0.00539 µM; with AcrIF13 E18K (natural protein), 0.00255 µM.

Take AcrIF13 (natural protein): the Kd was determined as 0.00151 µM in series [1], 0.647 µM in series [2] and 0.0342 µM in series [3]. Turning to AcrIF13 D63K (natural protein), in series [1], the dissociation constant (Kd) turned out to be 0.0246 µM. Consider “AcrIF13 E82K/E83K/D84K (natural protein)”, for which the dissociation constant (Kd) in series [1] came out at 0.00722 µM.

With AcrIF13 E97K (natural protein), the Kd in series [1] is 0.0143 µM. Take AcrIF13 D45K/D46K (natural protein): the dissociation constant Kd in series [1] was 0.00622 µM.

Regarding AcrIF13 E40K (natural protein), in series [1], the Kd was 0.00517 µM.

B1: 54 bp target dsDNA (dsDNA)
DNA 1: GGAAGCCATCCAGGTAGACGCGGACATCAAGCCCGCCGTGAAGGTGCAGCTGCT
DNA 2: AGCAGCTGCACCTTCACGGCGGGCTTGATGTCCGCGTCTACCTGGATGGCTTCC
Take B1: the binding result in series [4] is on record as “binds”.

(Values after PMC8857482.)
